Several values for one entry are separate records, joined by “and”; a condition that tells them apart may be missing. Equal entries are not always repeated.

B1: Monomeric Hexim1 BR-L-AR (aa 142-253) (domain or fragment, human)
chain: GGQQQRQLGKKKHRRRPSKKKRHWKPYYKLTWEEKKKFDEKQSLRASRIRAEMFAKGQPVAPYNTTQFLMDDHDQEEPDLKTGLYSKRAAAKSDDTSDDDFMEEGGEEDGGSD
notes: non-native glycine that remains at the N-terminus after TEV protease cleavage; Hexim1, human, residues 142-253: Basic Region, linker with PYNT motif, Acidic Region; 15N-labelled as the reporter in the PRE NMR experiments; unlabelled in NativePAGE and mass photometry; also called Hexim1 central region construct; not shown: His6, N-terminal, cleaved; MBP, N-terminal, cleaved

For data set [1], the target named is T1, Hexim1 full-length (human, UniProt O94992 1-359). In words: ITC. The settings on record: N=1.40; protein in syringe (inferred from N); ITC: 20 mM HEPES pH 7.5, 150 mM KCl, 1 mM TCEP, 295 K; NMR: 50 mM Na phosphate pH 6.2, 150 mM KCl, 0.02% NaN3, 5% D2O, 298 K; EMSA: binding buffer (20 mM HEPES …).
The next data set deals with T2, Hexim1-A12m (human) (UniProt O94992).
T2 sequence: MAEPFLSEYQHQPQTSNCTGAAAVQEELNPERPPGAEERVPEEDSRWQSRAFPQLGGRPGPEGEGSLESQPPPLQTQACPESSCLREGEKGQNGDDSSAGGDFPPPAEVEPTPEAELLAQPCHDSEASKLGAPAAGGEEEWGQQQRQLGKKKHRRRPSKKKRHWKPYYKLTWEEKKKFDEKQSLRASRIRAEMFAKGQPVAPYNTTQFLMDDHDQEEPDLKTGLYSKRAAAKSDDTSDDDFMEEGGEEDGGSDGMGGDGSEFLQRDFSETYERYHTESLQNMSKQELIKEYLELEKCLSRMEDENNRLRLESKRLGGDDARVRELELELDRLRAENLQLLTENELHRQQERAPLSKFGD
Put plainly: ITC. The settings on record: ITC: 20 mM HEPES pH 7.5, 150 mM KCl, 1 mM TCEP, 295 K; NMR: 50 mM Na phosphate pH 6.2, 150 mM KCl, 0.02% NaN3, 5% D2O, 298 K; EMSA: binding buffer (20 mM HEPES …). In general terms: In EMSA bound probe runs differently from free probe, usually more slowly.

A further data set addresses T3, Hexim1-A3m (human) (UniProt O94992).
T3 sequence: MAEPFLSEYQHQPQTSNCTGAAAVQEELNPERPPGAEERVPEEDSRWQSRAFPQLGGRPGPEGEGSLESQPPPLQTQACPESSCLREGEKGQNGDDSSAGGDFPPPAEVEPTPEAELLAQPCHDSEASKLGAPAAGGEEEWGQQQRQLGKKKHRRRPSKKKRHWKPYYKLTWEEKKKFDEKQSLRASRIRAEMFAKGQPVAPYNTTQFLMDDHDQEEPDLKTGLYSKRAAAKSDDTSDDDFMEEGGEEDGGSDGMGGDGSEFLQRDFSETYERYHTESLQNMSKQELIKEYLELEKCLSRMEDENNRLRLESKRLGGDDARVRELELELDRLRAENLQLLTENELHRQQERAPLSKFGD
In words: ITC. The settings on record: N=0.34; ITC: 20 mM HEPES pH 7.5, 150 mM KCl, 1 mM TCEP, 295 K; NMR: 50 mM Na phosphate pH 6.2, 150 mM KCl, 0.02% NaN3, 5% D2O, 298 K; EMSA: binding buffer (20 mM HEPES …).

In a further data set the target is T4, Hexim1 BRARM1 (human, UniProt O94992 141-159).
T4 chain: WGQQQRQLGKKKHRRRPSK
Put plainly: NMR; Site2 shifted, not Site4; ITC: 20 mM HEPES pH 7.5, 150 mM KCl, 1 mM TCEP, 295 K; NMR: 50 mM Na phosphate pH 6.2, 150 mM KCl, 0.02% NaN3, 5% D2O, 298 K; EMSA: binding buffer (20 mM HEPES). As to conditions: protein: recombinant; tags: GB1-His6 removed by TEV; non-native N-terminal G; hairpin.

The next data set has as its target Hexim1 NBLA (N-BR-L-AR) (human, UniProt O94992 1-253). Put plainly: ITC; N=0.81; ITC: 20 mM HEPES pH 7.5, 150 mM KCl, 1 mM TCEP, 295 K; NMR: 50 mM Na phosphate pH 6.2, 150 mM KCl, 0.02% NaN3, 5% D2O, 298 K; EMSA: binding buffer (20 mM HEPES). The settings on record: protein: recombinant; hairpin with U40U41 and U63 bulges. Background: In ITC the heat of successive injections is recorded.

In data set [2] the target is T1, Hexim1 full-length. Put plainly: ITC; N=0.76; ITC: 20 mM HEPES pH 7.5, 150 mM KCl, 1 mM TCEP, 295 K; NMR: 50 mM Na phosphate pH 6.2, 150 mM KCl, 0.02% NaN3, 5% D2O, 298 K; EMSA: binding buffer (20 mM HEPES). As to conditions: protein: recombinant; tags: MBP-His6 removed by TEV; non-native N-terminal G remains; chain copies: 2; hairpin with U40U41 and U63 bulges.
Data set [3] deals with the molecule itself. Put plainly: mass photometry; Refeyn TwoMP; freshly purified proteins alone or mixed as complexes, drop-diluted into phosphate-buffered saline pH 7.4 to 40 nM final total protein.
Data set [4] concerns the molecule itself. In words: paramagnetic relaxation enhancement (PRE) NMR; total interaction experiment: 15N-labelled and MTSL-tagged BR-L-AR alone, captures both intra- and inter-monomer contacts; 15N-1H HSQC, 290.15 K, 600 MHz; 50 mM sodium phosphate pH 6.2, 150 mM KCl.
The target in data set [5] is B1. In words: paramagnetic relaxation enhancement (PRE) NMR; inter-only experiment: 1:1 mixture of 15N-labelled untagged BR-L-AR (reporter) with 14N-labelled MTSL-tagged BR-L-AR (broadener); 15N-1H HSQC, 290.15 K, 600 MHz; 50 mM sodium phosphate pH 6.2, 150 mM KCl. The settings on record: both partners purified.
A further data set has as its target Hexim1 BR-L-AR (human, UniProt O94992 142-253). In words: NMR; ITC: 20 mM HEPES pH 7.5, 150 mM KCl, 1 mM TCEP, 295 K; NMR: 50 mM Na phosphate pH 6.2, 150 mM KCl, 0.02% NaN3, 5% D2O, 298 K; EMSA: binding buffer (20 mM HEPES). The settings on record: protein: recombinant; tags: MBP-His6 removed by TEV; non-native N-terminal G; hairpin.
The target in data set [6] is T1, Hexim1 full-length. Put plainly: ITC; N=0.47; ITC: 20 mM HEPES pH 7.5, 150 mM KCl, 1 mM TCEP, 295 K; NMR: 50 mM Na phosphate pH 6.2, 150 mM KCl, 0.02% NaN3, 5% D2O, 298 K; EMSA: binding buffer (20 mM HEPES). The settings on record: protein: recombinant; tags: MBP-His6 removed by TEV; non-native N-terminal G remains; chain copies: 2; hairpin.
For data set [7], the target named is T1, Hexim1 full-length. Put plainly: ITC; N=0.49; ITC: 20 mM HEPES pH 7.5, 150 mM KCl, 1 mM TCEP, 295 K; NMR: 50 mM Na phosphate pH 6.2, 150 mM KCl, 0.02% NaN3, 5% D2O, 298 K; EMSA: binding buffer (20 mM HEPES). As to conditions: protein: recombinant; tags: MBP-His6 removed by TEV; non-native N-terminal G remains; chain copies: 2; hairpin.

By Kd is commonly meant the free concentration of one partner at which half of the binding sites on the other are occupied at equilibrium, for simple one-to-one binding. 7SK SL1-d(api): the Kd with Hexim1 full-length [1] is 96 nM.
Turning to “GGAUGUGAGGGCGAUCUGGCUUCGGCCUUCCUCCCUCACCGCUCCA [7SK SL1-p]”, the binding signal (fold tighter than wild-type Hexim1) with Hexim1-A12m (human) turned out to be 6. In the data set with Hexim1-A3m (human), this molecule showed a Kd of 276 nM.
For GGCUGCGACAUCUGUCACCUUCGGGCUAGGCGGGUGUCCCC (structured_RNA) [7SK SL1-dIIm], the binding result with Hexim1 BRARM1 is listed as “binds”.
In the case of GGCCAUUGAUCGCCUUCGGGCUGAUCUGGCC (structured_RNA) [7SK SL1-dI], the Kd turned out to be 83 ± 28 nM with Hexim1 NBLA (N-BR-L-AR) and 780 ± 25 nM in the data set with Hexim1 full-length [2].
As usually defined, the stoichiometry N is a count of units in the complex or per binding partner. With B1, the “stoichiometry N” value in data set [3] is 3 and 4.

B2: Hexim1 BR-L-AR(S183C^MTSL) (domain or fragment, human)
chain: GGQQQRQLGKKKHRRRPSKKKRHWKPYYKLTWEEKKKFDEKQCLRASRIRAEMFAKGQPVAPYNTTQFLMDDHDQEEPDLKTGLYSKRAAAKSDDTSDDDFMEEGGEEDGGSD
modifications: MTSL nitroxide spin label on C183
notes: non-native glycine that remains at the N-terminus of BR-L-AR after TEV protease cleavage; Hexim1, human, residues 142-253 (BR-L-AR) with S183C; 15N-labelled; not shown: His6, N-terminal, cleaved; MBP, N-terminal, cleaved
Consider B2, for which, in [4], the binding result is reported as “binds”.

B3: Hexim1 BR-L-AR(A201C^MTSL) (domain or fragment, human)
chain: GGQQQRQLGKKKHRRRPSKKKRHWKPYYKLTWEEKKKFDEKQSLRASRIRAEMFAKGQPVCPYNTTQFLMDDHDQEEPDLKTGLYSKRAAAKSDDTSDDDFMEEGGEEDGGSD
modifications: MTSL nitroxide spin label on C201
notes: non-native glycine that remains at the N-terminus of BR-L-AR after TEV protease cleavage; Hexim1, human, residues 142-253 (BR-L-AR) with A201C; 15N-labelled; not shown: His6, N-terminal, cleaved; MBP, N-terminal, cleaved
On to B3, for which the binding result in [4] was “binds”.

B4: Hexim1 BR-L-AR(S226C^MTSL) (domain or fragment, human)
chain: GGQQQRQLGKKKHRRRPSKKKRHWKPYYKLTWEEKKKFDEKQSLRASRIRAEMFAKGQPVAPYNTTQFLMDDHDQEEPDLKTGLYCKRAAAKSDDTSDDDFMEEGGEEDGGSD
modifications: MTSL nitroxide spin label on C226
notes: non-native glycine that remains at the N-terminus of BR-L-AR after TEV protease cleavage; Hexim1, human, residues 142-253 (BR-L-AR) with S226C; not shown: His6, N-terminal, cleaved; MBP, N-terminal, cleaved
B4: the binding result in [5] and in data set [4] was “binds” in each case.

B5: Hexim1 BR-L-AR(S233C^MTSL) (domain or fragment, human)
chain: GGQQQRQLGKKKHRRRPSKKKRHWKPYYKLTWEEKKKFDEKQSLRASRIRAEMFAKGQPVAPYNTTQFLMDDHDQEEPDLKTGLYSKRAAAKCDDTSDDDFMEEGGEEDGGSD
modifications: MTSL nitroxide spin label on C233
notes: non-native glycine that remains at the N-terminus of BR-L-AR after TEV protease cleavage; Hexim1, human, residues 142-253 (BR-L-AR) with S233C; 14N in the inter-only experiment; not shown: His6, N-terminal, cleaved; MBP, N-terminal, cleaved
B5: the binding result in [5] is given as “binds”.

B6: Hexim1 BR-L-AR(S237C^MTSL) (domain or fragment, human)
chain: GGQQQRQLGKKKHRRRPSKKKRHWKPYYKLTWEEKKKFDEKQSLRASRIRAEMFAKGQPVAPYNTTQFLMDDHDQEEPDLKTGLYSKRAAAKSDDTCDDDFMEEGGEEDGGSD
modifications: MTSL nitroxide spin label on C237
notes: non-native glycine that remains at the N-terminus of BR-L-AR after TEV protease cleavage; Hexim1, human, residues 142-253 (BR-L-AR) with S237C; not shown: His6, N-terminal, cleaved; MBP, N-terminal, cleaved
For the molecule B6, in [5], the binding result is “binds”.
For GGCGAUCUGGCUGCGACAUCUGUCACCCCAUUGAUCGCC (structured_RNA) [7SK SL1alt (circular), loop version not stated], the binding result with Hexim1 BR-L-AR is “binds”.

B7: Full-length human Hexim1 protein (aa 1-359) (natural protein)
chain: GMAEPFLSEYQHQPQTSNCTGAAAVQEELNPERPPGAEERVPEEDSRWQSRAFPQLGGRPGPEGEGSLESQPPPLQTQACPESSCLREGEKGQNGDDSSAGGDFPPPAEVEPTPEAELLAQPCHDSEASKLGAPAAGGEEEWGQQQRQLGKKKHRRRPSKKKRHWKPYYKLTWEEKKKFDEKQSLRASRIRAEMFAKGQPVAPYNTTQFLMDDHDQEEPDLKTGLYSKRAAAKSDDTSDDDFMEEGGEEDGGSDGMGGDGSEFLQRDFSETYERYHTESLQNMSKQELIKEYLELEKCLSRMEDENNRLRLESKRLGGDDARVRELELELDRLRAENLQLLTENELHRQQERAPLSKFGD
notes: non-native glycine that remains at the N-terminus after TEV protease cleavage; Hexim1, human, aa 1-359; also called Hexim1 dimer; full-length Hexim1; not shown: His6, N-terminal, cleaved; MBP, N-terminal, cleaved
As for B7, the “stoichiometry N” value in data set [3] was 2.
As for GGCUGUCACCUUCGGGCUAGGCGGCC (structured_RNA) [7SK SL1-dII], the Kd in the data set with Hexim1 full-length [6] worked out at 1220 ± 129 nM.
Take GGAUGUGAGGGCGAUCUGGCUUCGGCCUUCCUCCCUCACCGCUCCA (structured_RNA) [7SK SL1-p]: the Kd with Hexim1 full-length [7] amounted to 2210 ± 197 nM.

B8: Hexim1 L-AR-CC dimeric protein (domain or fragment, human, UniProt O94992 171-359, looked up)
chain: TWEEKKKFDEKQSLRASRIRAEMFAKGQPVAPYNTTQFLMDDHDQEEPDLKTGLYSKRAAAKSDDTSDDDFMEEGGEEDGGSDGMGGDGSEFLQRDFSETYERYHTESLQNMSKQELIKEYLELEKCLSRMEDENNRLRLESKRLGGDDARVRELELELDRLRAENLQLLTENELHRQQERAPLSKFGD
notes: Hexim1, human; linker (L), Acidic Region (AR) and coiled-coil domain (CC, 254-359); source: E. coli BL21-GOLD(DE3), purified
For B8, the “stoichiometry N” value in data set [3] was 2.

Source of the values: paper PMC12901311, “HEXIM1 inter-monomer autoinhibition governs 7SK RNA binding specificity and P-TEFb inactivation” (Nature Communications, 2024).
